Test results: the supplement of paper PMC9732359
± gives the uncertainty stated by the source.

Assay: protein stability index of a GFP-peptide fusion (yeast GPS) (PSI 1-4); higher = more stable; sorted into four equal gates, so the index is relative within each strain
Method in brief: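 The protein stability index combines read frequencies across sorting gates, each weighted by its gate number and then summed. To obtain those frequencies, a pooled yeast library of GFP fusions to tiled 17-residue yeast protein peptides, on a plasmid also expressing Cherry, was grown to mid-log phase in leucine-free medium. The cells were sorted into four equal gates by GFP/Cherry ratio before plasmid amplification by PCR and Illumina sequencing.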

Sequence | protein stability index (doa10∆) | protein stability index (pdr5∆) | protein stability index (san1∆) | protein stability index (ubr1∆)
FEKDLMAYFDENLNRNW [BRN1] | 2.93 ± 0.059 | 3.27 ± 0.063 | 3.14 ± 0.056 | 3.17 ± 0.057
FELSFTGAPPYYYNTKI [YMR129W/POM152] | 2.75 ± 0.089 | 1.99 ± 0.12 | 2.66 ± 0.15 | 3.21 ± 0.12
FEQFEKFYEEKLWFQLS [RPN9] | 3.08 ± 0.27 | 2.58 ± 0.26 |  | 1.72 ± 0.13
FERPAVKEEKEDMETQA [RPC53] | 2.87 ± 0.24 | 2.71 ± 0.23 | 3.2 ± 0.084 | 3.46 ± 0.16
FEVEMILMQQQMMARMA [SRP54] | 1.17 ± 0.12 | 1.19 ± 0.076 | 2.34 ± 0.15 | 1.73 ± 0.27
FFGPTYYQRLRHMVDDK [RPB2] | 1.24 ± 0.046 | 1.26 ± 0.046 | 1.72 ± 0.1 | 1.36 ± 0.053
FGATTNDDKKTEPDKPA [YJL041W/NSP1] | 1.55 ± 0.098 | 2.48 ± 0.097 | 2.61 ± 0.15 | 2.65 ± 0.11
FGELQFAFLNAMFFGNY [AAR2] | 2.87 ± 0.069 | 2.61 ± 0.085 | 2.94 ± 0.067 | 3 ± 0.064
FGNSLSNTVNANNYSSN [YDL088C/ASM4] | 2.94 ± 0.084 | 3 ± 0.09 | 3.08 ± 0.072 | 3.18 ± 0.056
FGNSSPQLTFTHVANFM [YML103C/NUP188] | 2.97 ± 0.096 | 3.03 ± 0.08 | 3.04 ± 0.054 | 2.92 ± 0.052
FGTGQSTFGFNNSAPNN [YJL041W/NSP1] | 3.17 ± 0.046 | 3.29 ± 0.051 | 3.1 ± 0.04 | 3.3 ± 0.036
FHAEPSGTFYRYNAKAI [PUP2] | 2.79 ± 0.15 | 1.81 ± 0.13 | 2.87 ± 0.059 | 1.67 ± 0.077
FHFRAPSRIFYKALRGM [RPL16A] | 1.97 ± 0.24 | 2.4 ± 0.18 | 2.27 ± 0.14 | 2.43 ± 0.14
FIGRLPIMLRSKNCYLS [RPB2] | 1.43 ± 0.072 | 1.58 ± 0.081 | 1.17 ± 0.14 | 1.19 ± 0.054
FISAARYKPKSHLWEID [RPC37] | 3.02 ± 0.11 | 3.06 ± 0.082 | 2.71 ± 0.067 | 3.11 ± 0.069
FIYGEDGMDAAHIEKQS [RPO21] | 3.31 ± 0.069 | 3.29 ± 0.084 | 3.38 ± 0.054 | 3.36 ± 0.043
FKERQMMVSYPKIDEDD [AAR2] | 3.28 ± 0.061 | 3.2 ± 0.055 | 3.19 ± 0.045 | 3.35 ± 0.043
FKKTLRSRISSPHGLIN [SRB4] | 2.09 ± 0.049 | 2.15 ± 0.056 | 2.53 ± 0.065 | 2.15 ± 0.042
FKQKLNELLKCKDDVQL [MTW1] | 2.93 ± 0.054 | 2.96 ± 0.049 | 2.87 ± 0.036 | 3 ± 0.039
FKSTESNISDEKSRISE [YMR129W/POM152] | 3.3 ± 0.2 | 3.01 ± 0.16 | 2.78 ± 0.12 | 3.05 ± 0.17
FKYRKARLEPGTAIGAI [RPO31] | 2.73 ± 0.16 | 1.99 ± 0.092 | 2.17 ± 0.1 | 2.33 ± 0.057
FLESSKEIDPSQTTQLA [FAS2] | 2.89 ± 0.11 | 3 ± 0.085 | 2.6 ± 0.084 | 2.42 ± 0.14
FLHESSFDSIDHSWFLL [CSI1] | 2.67 ± 0.075 | 2.93 ± 0.061 | 2.48 ± 0.072 | 2.87 ± 0.044
FLKKNIIKENVKVARLA [FAS1] |  | 1.56 ± 0.26 |  | 
FLKKVMDTIQDKLINDV [ECM29] | 3.08 ± 0.16 | 3.58 ± 0.2 | 2.95 ± 0.2 | 3.34 ± 0.15
FLLLAVNKYGLRADKLY [ISW2] | 3.05 ± 0.078 | 2.5 ± 0.075 | 2.62 ± 0.055 | 2.93 ± 0.059
FLPRKRAASIRARVKAF [RPL3] | 1.16 ± 0.045 | 1.18 ± 0.064 | 1.15 ± 0.11 | 1.17 ± 0.051

Sequence | protein stability index (doa10∆) | protein stability index (pdr5∆) | protein stability index (san1∆) | protein stability index (ubr1∆)
FLQGESPFSITFSVYHE [YMR129W/POM152] | 2.4 ± 0.073 | 2.08 ± 0.056 | 2.64 ± 0.047 | 2.36 ± 0.052
FLQPLLLVGLIKTFYWL [NUT1] | 1.8 ± 0.051 | 2.3 ± 0.062 | 1.5 ± 0.089 | 1.8 ± 0.051
FLTPMDSIDLAPNTLTN [YML103C/NUP188] | 1.51 ± 0.18 | 1.68 ± 0.1 | 1.98 ± 0.18 | 1.26 ± 0.082
FLVRYACEPTAEKFVPI [SIR3] | 2.55 ± 0.23 | 2.9 ± 0.097 | 2.75 ± 0.11 | 2.91 ± 0.1
FLYVLIPAGIYWYWWKN [QCR8] | 1.93 ± 0.11 | 1.33 ± 0.13 | 1.62 ± 0.21 | 1.35 ± 0.27
FMDNSYDIDEIDHSDES [ESC2] |  |  | 2.66 ± 0.14 | 2.82 ± 0.13
FMLILALFVFYSPNTLG [COB] | 2.28 ± 0.074 | 2.15 ± 0.057 | 2.46 ± 0.056 | 2.52 ± 0.053
FMRNGLLEGLNEKIEKR [UBP6] | 2.99 ± 0.29 | 2.87 ± 0.18 | 3.21 ± 0.26 | 3.55 ± 0.23
FNATVDETKGFDDNDSG [MED2] | 3.14 ± 0.09 | 3.17 ± 0.078 | 3.25 ± 0.066 | 3.29 ± 0.078
FNDSQAIVCYILFELYK [SRP72] | 1.95 ± 0.056 | 2.31 ± 0.047 | 2.01 ± 0.061 | 2.36 ± 0.053
FNKEQLNKFKKAIFQFV [ECM29] | 1.58 ± 0.15 | 1.27 ± 0.096 |  | 1.15 ± 0.069
FNKSAELSRIENEVENI [YCS4] | 3.51 ± 0.17 | 3.4 ± 0.19 | 3.27 ± 0.06 | 3.39 ± 0.17
FNTFWDEKGNEIKVGKQ [ARP9] | 3.24 ± 0.099 | 2.53 ± 0.089 | 2.88 ± 0.089 | 2.52 ± 0.059
FNTNSSFTPSTVPNINF [YOR098C/NUP1] | 2.48 ± 0.04 | 2.42 ± 0.032 | 2.54 ± 0.04 | 2.77 ± 0.029
FNYNIFMHDPSVFYNIA [SIR2] | 1.46 ± 0.055 | 1.69 ± 0.037 | 1.5 ± 0.073 | 1.76 ± 0.048
FPMKQGVLLPTRIKLLL [RPS6A] | 1.26 ± 0.053 | 1.39 ± 0.053 | 1.17 ± 0.094 | 1.29 ± 0.038
FPMPYENEEFITFLQTL [ECM29] | 2.34 ± 0.058 | 2.53 ± 0.034 | 2.4 ± 0.047 | 2.39 ± 0.063
FPRDGKAPEAEQVLSAA [RPL13B] | 3.3 ± 0.093 | 2.9 ± 0.086 | 2.9 ± 0.069 | 3 ± 0.045
FPSSETTSLNPIQSKVF [BRR2] | 2.2 ± 0.093 | 2.52 ± 0.082 | 1.79 ± 0.14 | 2.33 ± 0.11
FPTTSHESLVTTLLRKK [MED8] | 2.12 ± 0.12 | 1.82 ± 0.12 | 1.72 ± 0.14 | 1.95 ± 0.12
FQETLDSTVVYPLPKFP [MED8] | 3.05 ± 0.05 | 3.19 ± 0.044 | 2.95 ± 0.042 | 3.15 ± 0.044
FQFFPKELDALQEKEQL [ISW2] | 2.79 ± 0.066 | 2.97 ± 0.074 | 3.04 ± 0.043 | 2.97 ± 0.06
FQIEADFIGHNSNINTL [ASC1] | 2.1 ± 0.06 | 2.63 ± 0.049 | 2.35 ± 0.081 | 2.68 ± 0.043
FQYGSRLPTFLKHKSIC [RPP1] | 2.24 ± 0.081 | 1.91 ± 0.055 | 1.68 ± 0.084 | 1.87 ± 0.063
FQYVIDESSGTSRIDEE [SMC4] | 2.93 ± 0.082 | 2.86 ± 0.09 | 2.05 ± 0.15 | 3.23 ± 0.13
FRGIIRSQDVRSTDRDR [CSL4] |  |  |  | 2.9 ± 0.2
